The target in the assay is T1, mouse Unc5B (mouse, UniProt Q8K1S3 27-945).
T1 construct: whole, on cells; Endogenous protein; also called Uncoordinated 5B
The assay can be described thus: immunoprecipitation from mouse brain endothelial Bend.3 cells with the named antibody, western blot of the precipitate for Unc5B and Claudin5.

T1 sequence (Q8K1S3 27-945): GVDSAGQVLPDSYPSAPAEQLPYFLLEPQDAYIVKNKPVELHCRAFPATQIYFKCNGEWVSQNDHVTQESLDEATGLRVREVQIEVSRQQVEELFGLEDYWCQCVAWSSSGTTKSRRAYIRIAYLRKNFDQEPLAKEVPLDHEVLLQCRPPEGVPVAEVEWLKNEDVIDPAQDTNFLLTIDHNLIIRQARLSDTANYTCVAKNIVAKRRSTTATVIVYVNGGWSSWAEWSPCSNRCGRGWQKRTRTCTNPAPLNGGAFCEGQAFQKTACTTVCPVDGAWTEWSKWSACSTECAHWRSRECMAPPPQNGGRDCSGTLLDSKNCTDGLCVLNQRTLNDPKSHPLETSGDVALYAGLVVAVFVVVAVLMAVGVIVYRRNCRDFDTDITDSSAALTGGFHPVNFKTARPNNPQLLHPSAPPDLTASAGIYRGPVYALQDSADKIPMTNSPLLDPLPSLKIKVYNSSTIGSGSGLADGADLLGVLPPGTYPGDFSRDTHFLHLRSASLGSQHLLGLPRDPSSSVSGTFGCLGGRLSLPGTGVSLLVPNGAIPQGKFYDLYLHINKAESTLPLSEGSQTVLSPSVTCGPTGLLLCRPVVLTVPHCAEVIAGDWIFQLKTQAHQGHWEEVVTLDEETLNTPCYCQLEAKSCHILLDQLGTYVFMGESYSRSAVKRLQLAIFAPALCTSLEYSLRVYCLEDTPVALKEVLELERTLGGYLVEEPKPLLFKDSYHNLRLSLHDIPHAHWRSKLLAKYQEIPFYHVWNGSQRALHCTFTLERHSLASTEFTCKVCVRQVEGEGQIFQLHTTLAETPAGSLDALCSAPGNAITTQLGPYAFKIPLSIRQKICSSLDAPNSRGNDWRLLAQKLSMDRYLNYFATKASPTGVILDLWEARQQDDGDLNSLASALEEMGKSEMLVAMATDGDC

B1: anti-Unc5B antibody 1103 (antibody, V domains shown)
VH: EVQLVESGGGLVQPGGSLRLSCAASGFNISYYSIHWVRQAPGKGLEWVASIYSSSGYTSYADSVKGRFTISADTSKNTAYLQMNSLRAEDTAVYYCARGYGLDYWGQGTLVTVSS
VL: DIQMTQSPSSLSASVGDRVTITCRASQSVSSAVAWYQQKPGKAPKLLIYSASSLYSGVPSRFSGSRSGTDFTLTISSLQPEDFATYYCQQHYSYPITFGQGTKVEIKR
notes: also called anti-Unc5B-3
For B1, the binding result is listed as “binds”.
